Measured values as given in patent US20220040297A1 (Chugai, published 2022).

Target: T1, CD3ε homodimer protein (human, UniProt P07766 23-126, limits assumed, sulfo-tag or biotin label in some ECL assays)
T1 construct: also called human CD3ε homodimer protein; CD3 (CD3ε)
Experiment: SPR, CD3ε homodimer on chip;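 note: biacore SPR with antibody variants flowed as analyte over amine-coupled CD3ε homodimer on a CM chip, bound amount of each single-residue H chain variant over that of parent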

T1 sequence (P07766 23-126 limits assumed): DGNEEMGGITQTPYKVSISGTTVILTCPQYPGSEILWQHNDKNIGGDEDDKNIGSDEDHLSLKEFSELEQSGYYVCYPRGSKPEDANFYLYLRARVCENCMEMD

Binder | ratio of amounts bound vs CE115HA000
CE115HA000 A60E (antibody, name in Kabat numbering, V domains shown) VH: QVQLVESGGGVVQPGRSLRLSCAASGFTFSNAWMHWVRQAPGKGLEWVAQIKAKSNNYATYYEESVKGRFTISRDDSKNSLYLQMNSLKTEDTAVYYCRYVHYGAYYGVDAWGQGTTVTVSS VL: DIVMTQSPLSLPVTPGEPASISCRSSQSLVHSNRNTYLHWYQQKPGQAPRLLIYKVSNRFSGVPDRFSGSGSGTDFTLKISRVEAEDVGVYYCGQGTQVPYTFGQGTKLEIK | 0.94
CE115HA000 D73G (antibody, name in Kabat numbering, V domains shown) VH: QVQLVESGGGVVQPGRSLRLSCAASGFTFSNAWMHWVRQAPGKGLEWVAQIKAKSNNYATYYAESVKGRFTISRDGSKNSLYLQMNSLKTEDTAVYYCRYVHYGAYYGVDAWGQGTTVTVSS VL: DIVMTQSPLSLPVTPGEPASISCRSSQSLVHSNRNTYLHWYQQKPGQAPRLLIYKVSNRFSGVPDRFSGSGSGTDFTLKISRVEAEDVGVYYCGQGTQVPYTFGQGTKLEIK | 0.43
CE115HA000 A99H (antibody, name in Kabat numbering, V domains shown) VH: QVQLVESGGGVVQPGRSLRLSCAASGFTFSNAWMHWVRQAPGKGLEWVAQIKAKSNNYATYYAESVKGRFTISRDDSKNSLYLQMNSLKTEDTAVYYCRYVHYGHYYGVDAWGQGTTVTVSS VL: DIVMTQSPLSLPVTPGEPASISCRSSQSLVHSNRNTYLHWYQQKPGQAPRLLIYKVSNRFSGVPDRFSGSGSGTDFTLKISRVEAEDVGVYYCGQGTQVPYTFGQGTKLEIK | 1.48
CE115HA000 A99I (antibody, name in Kabat numbering, V domains shown) VH: QVQLVESGGGVVQPGRSLRLSCAASGFTFSNAWMHWVRQAPGKGLEWVAQIKAKSNNYATYYAESVKGRFTISRDDSKNSLYLQMNSLKTEDTAVYYCRYVHYGIYYGVDAWGQGTTVTVSS VL: DIVMTQSPLSLPVTPGEPASISCRSSQSLVHSNRNTYLHWYQQKPGQAPRLLIYKVSNRFSGVPDRFSGSGSGTDFTLKISRVEAEDVGVYYCGQGTQVPYTFGQGTKLEIK | 1.13
CE115HA000 A102Y (antibody, name in Kabat numbering, V domains shown) VH: QVQLVESGGGVVQPGRSLRLSCAASGFTFSNAWMHWVRQAPGKGLEWVAQIKAKSNNYATYYAESVKGRFTISRDDSKNSLYLQMNSLKTEDTAVYYCRYVHYGAYYGVDYWGQGTTVTVSS VL: DIVMTQSPLSLPVTPGEPASISCRSSQSLVHSNRNTYLHWYQQKPGQAPRLLIYKVSNRFSGVPDRFSGSGSGTDFTLKISRVEAEDVGVYYCGQGTQVPYTFGQGTKLEIK | 0.91
CE115HA000 A99F (antibody, name in Kabat numbering, V domains shown) VH: QVQLVESGGGVVQPGRSLRLSCAASGFTFSNAWMHWVRQAPGKGLEWVAQIKAKSNNYATYYAESVKGRFTISRDDSKNSLYLQMNSLKTEDTAVYYCRYVHYGFYYGVDAWGQGTTVTVSS VL: DIVMTQSPLSLPVTPGEPASISCRSSQSLVHSNRNTYLHWYQQKPGQAPRLLIYKVSNRFSGVPDRFSGSGSGTDFTLKISRVEAEDVGVYYCGQGTQVPYTFGQGTKLEIK | 1.43
CE115HA000 D73T (antibody, name in Kabat numbering, V domains shown) VH: QVQLVESGGGVVQPGRSLRLSCAASGFTFSNAWMHWVRQAPGKGLEWVAQIKAKSNNYATYYAESVKGRFTISRDTSKNSLYLQMNSLKTEDTAVYYCRYVHYGAYYGVDAWGQGTTVTVSS VL: DIVMTQSPLSLPVTPGEPASISCRSSQSLVHSNRNTYLHWYQQKPGQAPRLLIYKVSNRFSGVPDRFSGSGSGTDFTLKISRVEAEDVGVYYCGQGTQVPYTFGQGTKLEIK | 0.63
CE115HA000 D72E (antibody, name in Kabat numbering, V domains shown) VH: QVQLVESGGGVVQPGRSLRLSCAASGFTFSNAWMHWVRQAPGKGLEWVAQIKAKSNNYATYYAESVKGRFTISREDSKNSLYLQMNSLKTEDTAVYYCRYVHYGAYYGVDAWGQGTTVTVSS VL: DIVMTQSPLSLPVTPGEPASISCRSSQSLVHSNRNTYLHWYQQKPGQAPRLLIYKVSNRFSGVPDRFSGSGSGTDFTLKISRVEAEDVGVYYCGQGTQVPYTFGQGTKLEIK | 1.05
CE115HA000 A102V (antibody, name in Kabat numbering, V domains shown) VH: QVQLVESGGGVVQPGRSLRLSCAASGFTFSNAWMHWVRQAPGKGLEWVAQIKAKSNNYATYYAESVKGRFTISRDDSKNSLYLQMNSLKTEDTAVYYCRYVHYGAYYGVDVWGQGTTVTVSS VL: DIVMTQSPLSLPVTPGEPASISCRSSQSLVHSNRNTYLHWYQQKPGQAPRLLIYKVSNRFSGVPDRFSGSGSGTDFTLKISRVEAEDVGVYYCGQGTQVPYTFGQGTKLEIK | 1.43

The next lines start with the values.

ratio of amounts bound vs CE115HA000 | Binder
0.73 | CE115HA000 D73E (antibody, name in Kabat numbering, V domains shown) VH: QVQLVESGGGVVQPGRSLRLSCAASGFTFSNAWMHWVRQAPGKGLEWVAQIKAKSNNYATYYAESVKGRFTISRDESKNSLYLQMNSLKTEDTAVYYCRYVHYGAYYGVDAWGQGTTVTVSS VL: DIVMTQSPLSLPVTPGEPASISCRSSQSLVHSNRNTYLHWYQQKPGQAPRLLIYKVSNRFSGVPDRFSGSGSGTDFTLKISRVEAEDVGVYYCGQGTQVPYTFGQGTKLEIK
0.28 | CE115HA000 A99D (antibody, name in Kabat numbering, V domains shown) VH: QVQLVESGGGVVQPGRSLRLSCAASGFTFSNAWMHWVRQAPGKGLEWVAQIKAKSNNYATYYAESVKGRFTISRDDSKNSLYLQMNSLKTEDTAVYYCRYVHYGDYYGVDAWGQGTTVTVSS VL: DIVMTQSPLSLPVTPGEPASISCRSSQSLVHSNRNTYLHWYQQKPGQAPRLLIYKVSNRFSGVPDRFSGSGSGTDFTLKISRVEAEDVGVYYCGQGTQVPYTFGQGTKLEIK
0.84 | CE115HA000 A99T (antibody, name in Kabat numbering, V domains shown) VH: QVQLVESGGGVVQPGRSLRLSCAASGFTFSNAWMHWVRQAPGKGLEWVAQIKAKSNNYATYYAESVKGRFTISRDDSKNSLYLQMNSLKTEDTAVYYCRYVHYGTYYGVDAWGQGTTVTVSS VL: DIVMTQSPLSLPVTPGEPASISCRSSQSLVHSNRNTYLHWYQQKPGQAPRLLIYKVSNRFSGVPDRFSGSGSGTDFTLKISRVEAEDVGVYYCGQGTQVPYTFGQGTKLEIK
1.43 | CE115HA000 D72V (antibody, name in Kabat numbering, V domains shown) VH: QVQLVESGGGVVQPGRSLRLSCAASGFTFSNAWMHWVRQAPGKGLEWVAQIKAKSNNYATYYAESVKGRFTISRVDSKNSLYLQMNSLKTEDTAVYYCRYVHYGAYYGVDAWGQGTTVTVSS VL: DIVMTQSPLSLPVTPGEPASISCRSSQSLVHSNRNTYLHWYQQKPGQAPRLLIYKVSNRFSGVPDRFSGSGSGTDFTLKISRVEAEDVGVYYCGQGTQVPYTFGQGTKLEIK
0.82 | CE115HA000 A99S (antibody, name in Kabat numbering, V domains shown) VH: QVQLVESGGGVVQPGRSLRLSCAASGFTFSNAWMHWVRQAPGKGLEWVAQIKAKSNNYATYYAESVKGRFTISRDDSKNSLYLQMNSLKTEDTAVYYCRYVHYGSYYGVDAWGQGTTVTVSS VL: DIVMTQSPLSLPVTPGEPASISCRSSQSLVHSNRNTYLHWYQQKPGQAPRLLIYKVSNRFSGVPDRFSGSGSGTDFTLKISRVEAEDVGVYYCGQGTQVPYTFGQGTKLEIK
1.04 | CE115HA000 D73R (antibody, name in Kabat numbering, V domains shown) VH: QVQLVESGGGVVQPGRSLRLSCAASGFTFSNAWMHWVRQAPGKGLEWVAQIKAKSNNYATYYAESVKGRFTISRDRSKNSLYLQMNSLKTEDTAVYYCRYVHYGAYYGVDAWGQGTTVTVSS VL: DIVMTQSPLSLPVTPGEPASISCRSSQSLVHSNRNTYLHWYQQKPGQAPRLLIYKVSNRFSGVPDRFSGSGSGTDFTLKISRVEAEDVGVYYCGQGTQVPYTFGQGTKLEIK
